Laboratory results reported in article PMC9464147.
“And” between values parts separate entries of the source, which are not always exact repeats. Equal values may be shown once. One block for each substance: values may come before it.

How the values were obtained:
[1] = biological target: Milk CA VI (carbonic anhydrase VI purified from human milk) (human) (UniProt P23280); assay: SDS-PAGE without cross-linker; milk CA VI without DSS treatment (lane 7), boiled in sample buffer with SDS and reducing agent, SDS-PAGE, densitometry of bands
[2] = biological target: Milk CA VI (carbonic anhydrase VI purified from human milk) (human) (UniProt P23280); assay: SEC; analytical SEC, Superdex 200 5/150 GL, 50 µg protein, 50 mM Tris-HCl pH 7.5, 0.1 ml/min, +12 °C; MW from a standard curve, oligomeric state calculated with a monomer MW of 33.57 kDa
[3] = biological target: Milk CA VI (carbonic anhydrase VI purified from human milk) (human) (UniProt P23280); assay: SEC; analytical SEC, Superdex 200 5/150 GL, 50 µg protein, 0.1 M Na-acetate buffer pH 5.0, 0.1 ml/min, +12 °C; MW from a standard curve, oligomeric state calculated with a monomer MW of 33.57 kDa
[4] = biological target: Milk CA VI (carbonic anhydrase VI purified from human milk) (human) (UniProt P23280); assay: cross-linking; DSS in 25- and 50-fold molar excess over protein (Table 3: 50-fold), milk CA VI 0.25-2 mg/ml in 100 mM Na2HPO4, 0.15 M NaCl pH 7.5, RT 30 min, quenched with Tris-HCl; reducing SDS-PAGE, densitometry of bands
[5] = biological target: Salivary CA VI (carbonic anhydrase VI purified from human saliva) (human) (UniProt P23280); assay: SEC; analytical SEC, Superdex 200 5/150 GL, 50 µg protein, 50 mM Tris-HCl pH 7.5, 0.1 ml/min, +12 °C; MW from a standard curve, oligomeric state calculated with a monomer MW of 33.57 kDa
[6] = biological target: Salivary CA VI (carbonic anhydrase VI purified from human saliva) (human) (UniProt P23280); assay: SEC; analytical SEC, Superdex 200 5/150 GL, 50 µg protein, 0.1 M Na-acetate buffer pH 5.0, 0.1 ml/min, +12 °C; MW from a standard curve, oligomeric state calculated with a monomer MW of 33.57 kDa

% of the lane in the dimer band (no DSS) [1]: 9.67%
stoichiometry N [2]: 15 and 6
stoichiometry N [3]: 7
% of the lane in the dimer band (0.25 mg/ml) [4]: 16.1%
% of the lane in the dimer band (0.5 mg/ml) [4]: 9.88%
% of the lane in the dimer band (0.75 mg/ml) [4]: 19.4%
% of the lane in the dimer band (1 mg/ml) [4]: 17%
% of the lane in the dimer band (1.5 mg/ml) [4]: 16.9%
% of the lane in the dimer band (2 mg/ml) [4]: 19%
% of the lane in the hexamer band (0.25 mg/ml) [4]: 22.3%
% of the lane in the hexamer band (0.5 mg/ml) [4]: 12.8%
% of the lane in the hexamer band (0.75 mg/ml) [4]: 20.3%
% of the lane in the hexamer band (1 mg/ml) [4]: 23.5%
% of the lane in the hexamer band (1.5 mg/ml) [4]: 20.4%
% of the lane in the hexamer band (2 mg/ml) [4]: 20.8%
% of the lane in the tetra- or pentamer band (0.25 mg/ml) [4]: 14.1%
% of the lane in the tetra- or pentamer band (0.5 mg/ml) [4]: 10.2%
% of the lane in the tetra- or pentamer band (0.75 mg/ml) [4]: 15.2%
% of the lane in the tetra- or pentamer band (1 mg/ml) [4]: 13.2%
% of the lane in the tetra- or pentamer band (1.5 mg/ml) [4]: 12.7%
% of the lane in the tetra- or pentamer band (2 mg/ml) [4]: 12.1%
stoichiometry N [4]: 5
stoichiometry N ([4]; dimer band): 2
stoichiometry N ([4]; hexamer band): 6
Substance: Milk CA VI (carbonic anhydrase VI purified from human milk) (from UniProt P23280 18-308) (enzyme)

stoichiometry N [5]: 14
stoichiometry N [6]: 6
Substance: Salivary CA VI (carbonic anhydrase VI purified from human saliva) (from UniProt P23280 18-308) (enzyme)
